# Results from the supplement of paper PMC9112550, “Optimization of the antimicrobial peptide Bac7 by deep mutational scanning” (BMC Biology, 2022).
# System: Escherichia coli TOP10
# Assay: shrunken log2 fold change of peptide-encoding DNA abundance (4.5 h post-induction vs induction); higher = less antimicrobial activity (less host growth inhibition)
# Settings: time post-induction: 4.5 h; library: site-saturation at positions 5, 18, 19, 20
# 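Note: peptides expressed intracellularly from a pBAD plasmid library in pooled LB shake-flask culture, induced with 0.3% L-arabinose, DNA abundance read by NGS, three biological replicates, DESeq2 with apeglm shrinkage.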
row,Sequence,shrunken log2 fold change
1,RRIRERPPRLPRPRPRPFALPRP,-0.256
2,RRIRDRPPRLPRPRPRPACPPRP,0.962
3,RRIRERPPRLPRPRPRPRILPRP,-0.202
4,RRIRPRPPRLPRPRPRPLGKPRP,-0.361
5,RRIRFRPPRLPRPRPRPESGPRP,0.0504
6,RRIRTRPPRLPRPRPRPTIPPRP,-0.198
7,RRIRCRPPRLPRPRPRPMIEPRP,-0.117
8,RRIRSRPPRLPRPRPRPNFGPRP,-0.265
9,RRIRDRPPRLPRPRPRPRGGPRP,0.726
10,RRIRHRPPRLPRPRPRPTGDPRP,0.208
11,RRIRMRPPRLPRPRPRPLWDPRP,0.437
12,RRIRSRPPRLPRPRPRPGHCPRP,0.0298
13,RRIRCRPPRLPRPRPRPKNPPRP,1.17
14,RRIRPRPPRLPRPRPRPNNTPRP,-0.312
15,RRIRARPPRLPRPRPRPHDVPRP,0.0276
16,RRIRYRPPRLPRPRPRPHHYPRP,-1.79
17,RRIRYRPPRLPRPRPRPDPNPRP,-0.57
18,RRIRHRPPRLPRPRPRPFFSPRP,-0.253
19,RRIRRRPPRLPRPRPRPDRDPRP,0.15
20,RRIRNRPPRLPRPRPRPGNGPRP,-0.462

row,Sequence,shrunken log2 fold change
1,RRIRDRPPRLPRPRPRPFFWPRP,0.504
2,RRIRLRPPRLPRPRPRPEYPPRP,-0.336
3,RRIRIRPPRLPRPRPRPLLIPRP,-0.485
4,RRIRIRPPRLPRPRPRPCVWPRP,-0.242
5,RRIRQRPPRLPRPRPRPDKPPRP,-0.214
6,RRIRDRPPRLPRPRPRPYFCPRP,-0.177
7,RRIRYRPPRLPRPRPRPYFQPRP,-1.6
8,RRIRDRPPRLPRPRPRPDMKPRP,-0.00136
9,RRIRCRPPRLPRPRPRPQFTPRP,-0.427
10,RRIRIRPPRLPRPRPRPPMMPRP,0.568
11,RRIRLRPPRLPRPRPRPWYIPRP,-0.137
12,RRIRNRPPRLPRPRPRPPRDPRP,0.499
13,RRIRRRPPRLPRPRPRPLIQPRP,0.256
14,RRIRKRPPRLPRPRPRPHLYPRP,0.0535
15,RRIRRRPPRLPRPRPRPEYKPRP,-0.0169
16,RRIRCRPPRLPRPRPRPWGYPRP,-0.372
17,RRIRLRPPRLPRPRPRPMDIPRP,-0.568
18,RRIRYRPPRLPRPRPRPLWHPRP,-0.48
19,RRIRERPPRLPRPRPRPMFVPRP,-0.285
20,RRIRERPPRLPRPRPRPRPYPRP,-0.0326

row,Sequence,shrunken log2 fold change
1,RRIRIRPPRLPRPRPRPTMWPRP,-0.0599
2,RRIRPRPPRLPRPRPRPEIKPRP,0.0782
3,RRIRHRPPRLPRPRPRPTDSPRP,0.0894
4,RRIRPRPPRLPRPRPRPSEKPRP,-0.0945
5,RRIRKRPPRLPRPRPRPIWTPRP,-0.00674
6,RRIRPRPPRLPRPRPRPRDNPRP,-0.104
7,RRIRPRPPRLPRPRPRPNFGPRP,0.26
8,RRIRRRPPRLPRPRPRPKWIPRP,-0.096
9,RRIRCRPPRLPRPRPRPEVCPRP,0.0143
10,RRIRDRPPRLPRPRPRPVHEPRP,-0.0506
11,RRIRKRPPRLPRPRPRPSATPRP,0.368
12,RRIRGRPPRLPRPRPRPQIAPRP,1.94
13,RRIRMRPPRLPRPRPRPVPKPRP,1.11
14,RRIRHRPPRLPRPRPRPFTLPRP,-0.312
15,RRIRKRPPRLPRPRPRPNMPPRP,0.145
16,RRIRMRPPRLPRPRPRPLCYPRP,-0.0697
17,RRIRHRPPRLPRPRPRPWTPPRP,-0.502
18,RRIRQRPPRLPRPRPRPTFPPRP,-0.0691
19,RRIRPRPPRLPRPRPRPKENPRP,-0.102
20,RRIRPRPPRLPRPRPRPFDDPRP,-0.189
